Molecular target: barrier-to-autointegration factor (BAF) (UniProt Q9VLU0)
Assay: GFP affinity purification, mass spectrometry
Conditions: reference: GFP-Ote wild type; sites S50,S54

## otefin (Ote; emerin) (from UniProt P20240) GFP-OteAA (S50A S54A)
  binding against the reference: stronger

— PMC10353892
